Bridges are numbered along the chain shown (N, C = ends). Where no end group is shown, it is not given here. L1 = not defined here; L3 = not defined here; L4 = not defined here; L5 = not defined here
T1: GPR10 (UniProt P49683 1-370, limits assumed)
T1 sequence (looked up): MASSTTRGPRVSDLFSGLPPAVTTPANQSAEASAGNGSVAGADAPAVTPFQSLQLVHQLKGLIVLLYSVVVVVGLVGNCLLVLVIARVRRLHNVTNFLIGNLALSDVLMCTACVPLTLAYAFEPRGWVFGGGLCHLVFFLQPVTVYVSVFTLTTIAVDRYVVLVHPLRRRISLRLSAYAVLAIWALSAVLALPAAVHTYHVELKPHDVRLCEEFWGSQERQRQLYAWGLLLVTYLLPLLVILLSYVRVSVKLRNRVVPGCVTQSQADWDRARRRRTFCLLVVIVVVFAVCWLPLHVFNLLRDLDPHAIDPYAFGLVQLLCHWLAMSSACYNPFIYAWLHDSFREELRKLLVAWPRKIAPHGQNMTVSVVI


target: T1, GPR10; experiment: cell-based or functional assay

| Binder | GPR10 EC50 [nM] |
| --- | --- |
| TPDINPAWYCGRGIRPCGRF-NH2 (linker 10-17 via L1; reading uncertain) [Conjugate 212] | > 10000 |
| TPDICPAWYTGCGIRPVGRF-NH2 (linker 5-12 via L4; reading uncertain) [Conjugate 220] | 610 |
| TPDICPAWYTGCGIRPVGRF-NH2 (linker 5-12 via L5; reading uncertain) [Conjugate 221] | 840 |
| TPDICPAWYTGCGIRPVGRF-NH2 (cysteine pairing not given here) [SEQ ID NO 83] | 44 |
| TPDCNPAWYTCRGIRPVGRF-NH2 (linker 4-11 via L1; reading uncertain) [Conjugate 206] | 7.3 |
| TPDINPACYTGRGICPVGRF-NH2 (linker 8-15 via L1; reading uncertain) [Conjugate 210] | 720 |
| TPDINPAWYTGRGIRPVGRF-NH2 [SEQ ID NO 106] | 13 |
| TPDINCAWYTGRCIRPVGRF-NH2 (cysteine pairing not given here) [SEQ ID NO 84] | 18 |
| TPDINPACYTGRGICPVGRF-NH2 (cysteine pairing not given here) [SEQ ID NO 86] | 6800 |
| TPDCNPAWYTCRGIRPVGRF-NH2 (linker 4-11 via L4; reading uncertain) [Conjugate 217] | 77 |
| TPDINPAWCTGRGIRCVGRF-NH2 (cysteine pairing not given here) [SEQ ID NO 87] | 120 |
| TPCINPAWYCGRGIRPVGRF-NH2 (cysteine pairing not given here) [SEQ ID NO 104] | 16 |
| TCDINPAWCTGRGIRPVGRF-NH2 (linker 2-9 via L5; reading uncertain) [Conjugate 215] | 620 |
| CRAHQHSCETRTPDINPAWYTGRGIRPVGRF-NH2 (linker 1-8 via L3; reading uncertain) [Conjugate 233] | 17 |
| TPDICPAWYTGCGIRPVGRF-NH2 (linker 5-12 via L3; reading uncertain) [Conjugate 219] | 25 |
| TPDINPCWYTGRGCRPVGRF-NH2 (cysteine pairing not given here) [SEQ ID NO 85] | 33 |
| TCDINPAWCTGRGIRPVGRF-NH2 (cysteine pairing not given here) [SEQ ID NO 103] | 33 |
| TPDINPCWYTGRGCRPVGRF-NH2 (linker 7-14 via L1; reading uncertain) [Conjugate 209] | 10 |

| Binder | GPR10 EC50 [nM] |
| --- | --- |
| TCDINPAWCTGRGIRPVGRF-NH2 (linker 2-9 via L4; reading uncertain) [Conjugate 214] | 230 |
| TPDINPCWYTGRGCRPVGRF-NH2 (linker 7-14 via L3; reading uncertain) [Conjugate 222] | 5.2 |
| TPCINPAWYCGRGIRPVGRF-NH2 (linker 3-10 via L1; reading uncertain) [Conjugate 205] | 21 |
| CRAHQHSCETRTPDINPAWYTGRGIRPVGRF-NH2 (linker 1-8 via L4; reading uncertain) [Conjugate 234] | 230 |
| TPDCNPAWYTCRGIRPVGRF-NH2 (linker 4-11 via L5; reading uncertain) [Conjugate 218] | 81 |
| TPDICPAWYTGCGIRPVGRF-NH2 (linker 5-12 via L1; reading uncertain) [Conjugate 207] | 13 |
| CRAHQHSCETRTPDINPAWYTGRGIRPVGRF-NH2 (linker 1-8 via L1; reading uncertain) [Conjugate 225] | 24 |
| TPDINPCWYTGRGCRPVGRF-NH2 (linker 7-14 via L4; reading uncertain) [Conjugate 223] | > 1000 |
| TPDINPAWYCGRGIRPCGRF-NH2 (cysteine pairing not given here) [SEQ ID NO 88] | 1600 |
| CRAHQHSCETRTPDINPAWYTGRGIRPVGRF-NH2 (cysteine pairing not given here) [SEQ ID NO 89] | 16 |
| TPDINCAWYTGRCIRPVGRF-NH2 (linker 6-13 via L1; reading uncertain) [Conjugate 208] | 15 |
| TPDINPAWCTGRGIRCVGRF-NH2 (linker 9-16 via L1; reading uncertain) [Conjugate 211] | 160 |
| TCDINPAWCTGRGIRPVGRF-NH2 (linker 2-9 via L1; reading uncertain) [Conjugate 204] | 12 |
| TPDCNPAWYTCRGIRPVGRF-NH2 (linker 4-11 via L3; reading uncertain) [Conjugate 216] | 3.9 |
| TPDCNPAWYTCRGIRPVGRF-NH2 (cysteine pairing not given here) [SEQ ID NO 105] | 10 |
| TPDINPCWYTGRGCRPVGRF-NH2 (linker 7-14 via L5; reading uncertain) [Conjugate 224] | > 1000 |
| TCDINPAWCTGRGIRPVGRF-NH2 (linker 2-9 via L3; reading uncertain) [Conjugate 213] | 33 |
